In the supplement of paper PMC9112550, “Optimization of the antimicrobial peptide Bac7 by deep mutational scanning” (BMC Biology, 2022):

Test system: Escherichia coli TOP10
Test: shrunken log2 fold change of peptide-encoding DNA abundance (4.5 h post-induction vs induction); higher = less antimicrobial activity (less host growth inhibition)
Details: time post-induction: 4.5 h; library: site-saturation at positions 5, 18, 19, 20
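Note: peptides expressed intracellularly from a pBAD plasmid library in pooled LB shake-flask culture, induced with 0.3% L-arabinose, DNA abundance read by NGS, three biological replicates, DESeq2 with apeglm shrinkage.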

Sequence | shrunken log2 fold change
RRIRERPPRLPRPRPRPYKFPRP | -0.835
RRIRCRPPRLPRPRPRPHGFPRP | -0.0942
RRIRCRPPRLPRPRPRPAMNPRP | -0.0385
RRIRVRPPRLPRPRPRPCLEPRP | 0.0452
RRIRIRPPRLPRPRPRPASGPRP | 0.0837
RRIRWRPPRLPRPRPRPFSNPRP | -0.258
RRIRPRPPRLPRPRPRPYCGPRP | -0.148
RRIRERPPRLPRPRPRPHEFPRP | -0.0591
RRIRKRPPRLPRPRPRPQIYPRP | -0.159
RRIRQRPPRLPRPRPRPYIGPRP | -0.681
RRIRVRPPRLPRPRPRPVHSPRP | 0.0275
RRIRERPPRLPRPRPRPQRVPRP | -0.167
RRIRDRPPRLPRPRPRPRVTPRP | -0.0173
RRIRCRPPRLPRPRPRPAVDPRP | 0.449
RRIRSRPPRLPRPRPRPWFDPRP | -0.271
RRIRDRPPRLPRPRPRPDCDPRP | 0.122
RRIRIRPPRLPRPRPRPNNVPRP | -0.7
RRIRWRPPRLPRPRPRPKPWPRP | 0.515
RRIRLRPPRLPRPRPRPQWDPRP | -0.00172
RRIRQRPPRLPRPRPRPFNPPRP | -0.077
RRIRTRPPRLPRPRPRPCAIPRP | 0.00368
RRIRDRPPRLPRPRPRPYFNPRP | -0.849
RRIRVRPPRLPRPRPRPHGWPRP | 0.492
RRIRYRPPRLPRPRPRPMPQPRP | -0.318
RRIRLRPPRLPRPRPRPQRYPRP | -0.307

Sequence | shrunken log2 fold change
RRIRTRPPRLPRPRPRPRHCPRP | -0.0723
RRIRFRPPRLPRPRPRPIWKPRP | 0.248
RRIRARPPRLPRPRPRPEYTPRP | -0.0194
RRIRVRPPRLPRPRPRPTVCPRP | 0.518
RRIRARPPRLPRPRPRPTWDPRP | 0.604
RRIRMRPPRLPRPRPRPNSVPRP | -0.0202
RRIRFRPPRLPRPRPRPSGMPRP | -0.637
RRIRRRPPRLPRPRPRPKIHPRP | 0.02
RRIRGRPPRLPRPRPRPWYPPRP | -0.119
RRIRKRPPRLPRPRPRPMCWPRP | 0.0564
RRIRKRPPRLPRPRPRPEHSPRP | 0.00628
RRIRMRPPRLPRPRPRPSVEPRP | 0.227
RRIRTRPPRLPRPRPRPPQMPRP | 0.185
RRIRIRPPRLPRPRPRPIPYPRP | -0.295
RRIRARPPRLPRPRPRPAVLPRP | 0.549
RRIRERPPRLPRPRPRPSFAPRP | -0.192
RRIRPRPPRLPRPRPRPQPVPRP | 0.212
RRIRSRPPRLPRPRPRPFDEPRP | 0.0719
RRIRSRPPRLPRPRPRPWWWPRP | 0.0716
RRIRCRPPRLPRPRPRPKGSPRP | 0.189
RRIRIRPPRLPRPRPRPEDRPRP | -0.0106
RRIRTRPPRLPRPRPRPLLYPRP | -0.444
RRIRLRPPRLPRPRPRPWEKPRP | 0.0916
RRIRARPPRLPRPRPRPWWCPRP | -0.0725
RRIRCRPPRLPRPRPRPMRWPRP | 0.325

Sequence | shrunken log2 fold change
RRIRGRPPRLPRPRPRPEYCPRP | 0.307
RRIRMRPPRLPRPRPRPFPFPRP | -0.356
RRIRRRPPRLPRPRPRPVCMPRP | 0.32
RRIRNRPPRLPRPRPRPMTTPRP | -0.174
RRIRIRPPRLPRPRPRPDFYPRP | -0.554
RRIRARPPRLPRPRPRPDETPRP | 0.00253
RRIRIRPPRLPRPRPRPVTAPRP | -0.299
RRIRHRPPRLPRPRPRPRPNPRP | 0.321
RRIRTRPPRLPRPRPRPDISPRP | -0.038
RRIRFRPPRLPRPRPRPILVPRP | -0.152
RRIRLRPPRLPRPRPRPCWCPRP | 0.0793
RRIRYRPPRLPRPRPRPKCDPRP | -0.529
RRIRWRPPRLPRPRPRPVFQPRP | 0.183
RRIRGRPPRLPRPRPRPWREPRP | 0.599
RRIRWRPPRLPRPRPRPMPEPRP | -0.236
RRIRGRPPRLPRPRPRPFMHPRP | 0.416
RRIRKRPPRLPRPRPRPDQKPRP | 0.401
RRIRRRPPRLPRPRPRPNQAPRP | 0.212
RRIRPRPPRLPRPRPRPNGQPRP | 0.097
RRIRERPPRLPRPRPRPWRRPRP | 0.115
RRIRPRPPRLPRPRPRPMDNPRP | -0.683
RRIRSRPPRLPRPRPRPMAHPRP | 0.218
RRIRSRPPRLPRPRPRPCEAPRP | 0.389
RRIRWRPPRLPRPRPRPAIWPRP | 0.596
RRIRLRPPRLPRPRPRPAFWPRP | 0.292
